# ± gives the standard deviation of the averaged measurements.
# Tested on: ATP
# Assay: switch fluorescence ratio, 500 uM ATP over buffer (Cy3 cluster intensity, sum of 5 cycles each) (fold (ratio)); higher = stronger signal-on switching upon ATP binding; sequences stand for … in TCGTCGGCAGCGTCAGATGTGTATAAGAGACAGTTTTTTTTTTTTTTTTTTTTTTTTT…TC
# Conditions: aptamer strand: ATP DNA aptamer (quencher-CACCTGGGGGAGTATTGCGGAGGAAGG + anchor), 100 nM annealed; ATP concentration: 500 uM
# Method in brief: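 Clusters with intensities outside 100-1000 RFU were excluded. The remaining Cy3-labelled switching-strand clusters on a modified Illumina MiSeq flow-cell had been annealed to 100 nM quencher-labelled ATP aptamer and imaged in selection buffer, then after 15 min with 500 uM ATP at 22 °C, for five cycles separated by NaOH stripping and re-annealing. The fluorescence ratio, averaged per switch-domain sequence, is each cluster's summed target-cycle Cy3 intensity over its summed buffer-cycle Cy3 intensity.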
# 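Note: ATP exposure 15 min at 22 °C before imaging.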
row,Sequence,switch fluorescence ratio
1,TTTTAGGCCG,1.03 ± 0.042
2,TTTTAGGGGC,1.13 ± 0.23
3,TTTTAGGGTG,1.07 ± 0.072
4,TTTTAGGTGC,1.09 ± 0.099
5,TTTTAGTCAT,1.01 ± 0.014
6,TTTTAGTGAC,1.022 ± 0.0053
7,TTTTAGTT,0.993 ± 0.039
8,TTTTATAAGG,1.01 ± 0.023
9,TTTTATAATT,1.04 ± 0.089
10,TTTTATATTT,1 ± 0.034
11,TTTTATCCTT,1 ± 0.028
12,TTTTATCTAA,0.988 ± 0.048
13,TTTTATCTGA,1.02 ± 0.028
14,TTTTATGAGG,0.973 ± 0.03
15,TTTTATGC,1.01 ± 0.061
16,TTTTATTAAT,0.978 ± 0.04
17,TTTTATTACT,2.27 ± 1.8
18,TTTTATTATC,0.9986 ± 0.0079
19,TTTTATTCCT,1.04 ± 0.037
20,TTTTATTCGG,0.9614 ± 0.0095
21,TTTTATTTA,0.9701 ± 0.0072
22,TTTTATTTAT,1.02 ± 0.053
23,TTTTATTTCG,1.03 ± 0.068
24,TTTTCAAAAA,1.13 ± 0.19

row,Sequence,switch fluorescence ratio
1,TTTTCAAGGT,0.992 ± 0.019
2,TTTTCACCGT,1.06 ± 0.027
3,TTTTCAGAGT,1 ± 0.022
4,TTTTCAGGCG,1 ± 0.07
5,TTTTCATGGG,0.995 ± 0.013
6,TTTTCATTCC,1.13 ± 0.15
7,TTTTCATTGT,1.02 ± 0.036
8,TTTTCCAAAT,1.02 ± 0.024
9,TTTTCCCCGT,1.38 ± 0.56
10,TTTTCCGGGC,1.1 ± 0.014
11,TTTTCCTACG,2.38 ± 1.6
12,TTTTCCTGGA,1.03 ± 0.066
13,TTTTCCTTTT,1.04 ± 0.082
14,TTTTCGAGGG,1.01 ± 0.023
15,TTTTCGATGG,1.01 ± 0.016
16,TTTTCGATTG,1.01 ± 0.041
17,TTTTCGCTAA,1.55 ± 0.96
18,TTTTCGGGAA,1.011 ± 0.0057
19,TTTTCGGGGA,0.978 ± 0.018
20,TTTTCGGGTT,1 ± 0.04
21,TTTTCGTGGG,0.986 ± 0.027
22,TTTTCTATGT,1 ± 0.019
23,TTTTCTCCGT,1.3 ± 0.43
24,TTTTCTGCCG,1.03 ± 0.045

row,Sequence,switch fluorescence ratio
1,TTTTCTGGTT,0.97 ± 0.054
2,TTTTCTGTG,0.977 ± 0.031
3,TTTTCTGTTA,1.032 ± 0.0085
4,TTTTCTTATC,1.02 ± 0.048
5,TTTTCTTGGT,1.01 ± 0.012
6,TTTTCTTGTC,1.038 ± 0.0076
7,TTTTCTTGTT,0.9949 ± 0.0062
8,TTTTCTTTAA,0.9798 ± 0.0051
9,TTTTGAAATT,1 ± 0.046
10,TTTTGAACCC,0.984 ± 0.08
11,TTTTGAATCG,1.008 ± 0.0091
12,TTTTGACGCT,0.977 ± 0.012
13,TTTTGACGGA,0.994 ± 0.027
14,TTTTGAGCAC,1.16 ± 0.26
15,TTTTGAGGGC,1.01 ± 0.059
16,TTTTGAGGGG,1.01 ± 0.042
17,TTTTGATAAT,0.991 ± 0.016
18,TTTTGATCTA,0.97 ± 0.019
19,TTTTGATTCC,1.036 ± 0.009
20,TTTTGATTTC,1.02 ± 0.039
21,TTTTGATTTG,1 ± 0.034
22,TTTTGCAGCC,0.976 ± 0.02
23,TTTTGCAGGT,1.03 ± 0.026
24,TTTTGCATGA,1 ± 0.043

row,Sequence,switch fluorescence ratio
1,TTTTGCGAGG,1.03 ± 0.014
2,TTTTGCGCAA,0.9922 ± 0.0048
3,TTTTGCGCTC,1 ± 0.027
4,TTTTGCGCTG,0.94 ± 0.019
5,TTTTGCGGGT,0.983 ± 0.032
6,TTTTGCGGTC,1.02 ± 0.053
7,TTTTGCTGAC,1.14 ± 0.1
8,TTTTGCTGCG,1.023 ± 0.0033
9,TTTTGCTTGA,1.07 ± 0.052
10,TTTTGGAATG,1.011 ± 0.0027
11,TTTTGGAGCC,1.06 ± 0.046
12,TTTTGGAGCG,1.05 ± 0.052
13,TTTTGGAGGT,1.01 ± 0.013
14,TTTTGGATTA,1 ± 0.039
15,TTTTGGCCCC,1.07 ± 0.084
16,TTTTGGGAT,1.04 ± 0.15
17,TTTTGGGCTG,1 ± 0.067
18,TTTTGGGTAG,0.984 ± 0.03
19,TTTTGGGTAT,0.985 ± 0.032
20,TTTTGGGTGG,0.988 ± 0.034
21,TTTTGGTAAC,1.014 ± 0.0072
22,TTTTGGTATT,1.02 ± 0.044
23,TTTTGGTCAA,1.02 ± 0.037
24,TTTTGGTCCA,0.981 ± 0.015

row,Sequence,switch fluorescence ratio
1,TTTTGGTCGG,0.983 ± 0.022
2,TTTTGTAGTT,1 ± 0.043
3,TTTTGTATTA,0.99 ± 0.029
4,TTTTGTCGCG,0.9735 ± 0.0032
5,TTTTGTCTTT,1 ± 0.032
6,TTTTGTGACA,1 ± 0.027
7,TTTTGTGG,1.01 ± 0.073
8,TTTTGTGTA,0.994 ± 0.022
9,TTTTGTGTTT,0.997 ± 0.028
10,TTTTGTTAAT,1.01 ± 0.035
11,TTTTGTTCAG,0.985 ± 0.037
12,TTTTGTTCCT,1.02 ± 0.026
13,TTTTGTTGCG,1.03 ± 0.043
14,TTTTTAAATG,0.991 ± 0.017
15,TTTTTAACCT,1.57 ± 0.36
16,TTTTTAAGTT,1 ± 0.028
17,TTTTTAATGC,0.979 ± 0.034
18,TTTTTAATTA,1.005 ± 0.008
19,TTTTTAATTG,0.997 ± 0.024
20,TTTTTACCCG,1.01 ± 0.013
21,TTTTTACCGA,1.014 ± 0.0082
22,TTTTTAGACG,0.981 ± 0.057
23,TTTTTAGAG,0.999 ± 0.021
24,TTTTTAGAGA,0.9912 ± 0.007

row,Sequence,switch fluorescence ratio
1,TTTTTAGGGG,1.02 ± 0.055
2,TTTTTAGTAA,0.979 ± 0.028
3,TTTTTAGTAC,0.99 ± 0.013
4,TTTTTATGAG,1 ± 0.036
5,TTTTTATGCA,1.018 ± 0.0031
6,TTTTTATTAT,1.01 ± 0.036
7,TTTTTATTCT,1.02 ± 0.02
8,TTTTTATTGT,0.997 ± 0.035
9,TTTTTCAATC,1.07 ± 0.035
10,TTTTTCACTA,1.03 ± 0.033
11,TTTTTCAGGG,1.01 ± 0.026
12,TTTTTCAGGT,0.997 ± 0.015
13,TTTTTCCAAA,1 ± 0.041
14,TTTTTCCCGA,1.018 ± 0.0038
15,TTTTTCCCGG,1.17 ± 0.23
16,TTTTTCCGCT,1.86 ± 1
17,TTTTTCCGTA,1.02 ± 0.059
18,TTTTTCGAGG,0.997 ± 0.025
19,TTTTTCGATA,1.06 ± 0.029
20,TTTTTCGCTC,1.01 ± 0.042
21,TTTTTCGGGG,1.02 ± 0.032
22,TTTTTCGTTA,1.1 ± 0.083
23,TTTTTGAGTA,1.02 ± 0.03
24,TTTTTGATAC,1.063 ± 0.0034

row,Sequence,switch fluorescence ratio
1,TTTTTGCTTC,1.02 ± 0.043
2,TTTTTGGAAT,1 ± 0.028
3,TTTTTGGACC,1.1 ± 0.22
4,TTTTTGGATA,1.02 ± 0.014
5,TTTTTGGCCA,1.01 ± 0.051
6,TTTTTGGCCC,0.9649 ± 0.0018
7,TTTTTGGCGG,0.978 ± 0.038
8,TTTTTGGGAA,0.996 ± 0.029
9,TTTTTGGTGT,1.03 ± 0.036
10,TTTTTGTAAG,0.998 ± 0.043
11,TTTTTGTACG,0.998 ± 0.025
12,TTTTTGTCGC,0.992 ± 0.025
13,TTTTTGTCTT,0.96 ± 0.023
14,TTTTTGTGAC,0.999 ± 0.027
15,TTTTTGTGGC,0.985 ± 0.03
16,TTTTTGTGGG,0.993 ± 0.023
17,TTTTTGTTAC,1.08 ± 0.027
18,TTTTTGTTAG,0.965 ± 0.024
19,TTTTTGTTAT,0.996 ± 0.02
20,TTTTTTAAAT,0.987 ± 0.022
21,TTTTTTAACT,1 ± 0.046
22,TTTTTTAAGC,1.01 ± 0.018
23,TTTTTTAAGG,1 ± 0.034
24,TTTTTTACTG,0.991 ± 0.026

row,Sequence,switch fluorescence ratio
1,TTTTTTAGCC,1.02 ± 0.091
2,TTTTTTAGT,0.992 ± 0.027
3,TTTTTTATCT,1.05 ± 0.07
4,TTTTTTATGC,0.997 ± 0.018
5,TTTTTTCCCC,1.04 ± 0.047
6,TTTTTTCGCT,1.02 ± 0.047
7,TTTTTTCGTG,1.001 ± 0.0077
8,TTTTTTCTG,1.04 ± 0.097
9,TTTTTTGATA,0.981 ± 0.022
10,TTTTTTGC,0.955 ± 0.011
11,TTTTTTGCT,0.996 ± 0.039
12,TTTTTTGGCT,0.995 ± 0.025
13,TTTTTTGTAC,1.06 ± 0.037
14,TTTTTTTAAT,1 ± 0.028
15,TTTTTTTAGG,0.982 ± 0.03
16,TTTTTTTATG,0.989 ± 0.037
17,TTTTTTTATT,1 ± 0.03
18,TTTTTTTCAT,1 ± 0.028
19,TTTTTTTCCA,1.02 ± 0.013
20,TTTTTTTGCT,0.994 ± 0.024
21,TTTTTTTGTC,1.02 ± 0.028
22,TTTTTTTTTC,1.04 ± 0.11
23,TTTTTTTTTT,1.01 ± 0.083

# From the supplement of paper PMC10126150
